Laboratory results reported in patent publication US20250002998A1.

Columns and labels:
[1] = target: feline FAP in formalin fixed, paraffin embedded feline tissue sections (feline); experiment: immunohistochemistry on a formalin fixed, paraffin embedded kidney section of cat #20-10270 without fibrosis (fibrosis score 0); the score tells that no FAP was detected in this tissue, not that the antibody fails to bind FAP
[2] = target: feline FAP in formalin fixed, paraffin embedded feline tissue sections (feline); experiment: immunohistochemistry on a formalin fixed, paraffin embedded kidney section of cat #20-00774 with a higher level of fibrosis (fibrosis score 3)
[3] = target: feline FAP in formalin fixed, paraffin embedded feline tissue sections (feline); experiment: immunohistochemistry on a formalin fixed, paraffin embedded kidney section of cat #20-06613 with a higher level of fibrosis (fibrosis score 3)
[4] = target: feline FAP in formalin fixed, paraffin embedded feline tissue sections (feline); experiment: immunohistochemistry on a formalin fixed, paraffin embedded kidney section of cat #20-01692 with a low level of fibrosis (fibrosis score 1)

FAP score (0-3) [1]: 0 | FAP score (0-3) [2]: 2 | FAP score (0-3) [3]: 2 | FAP score (0-3) [4]: 1
Substance: cross-reactive anti-FAP monoclonal antibody ab207178 from abcam
